Source: patent US20080193980A1

Target: Human IgG
Experiment: plate coated with human IgG, luminescence (Imax) after CaCl2

**Q.** “Protein A-AQ fusion protein (from UniProt P02976 37-307; P07164 9-196)” was tested. Which concentration at which the luminescence intensity reached a plateau did it give?
**A.** 10 ng/mL
